Drawing on patent publication US12404493B2, “Methods for the re-derivation of diverse pluripotent stem cell-derived brown fat cells” (AgeX Therapeutics, Inc., priority 2015, dated 2025), this text covers cell viability for two molecules.

For this assay, the system named is hES cell-derived clonal embryonic progenitor cell lines. Kind of assay: Differentiation of clonal embryonic progenitor cell lines into BAT cells in HyStem beads, marker expression by Illumina microarray / qPCR. The assay is classed as cell-based, human. As to conditions: 10 ng/mL BMP4 or 100 ng/mL BMP7 added to rosiglitazone/T3/CL-316,243 differentiation in HyStem beads. Here is the method:
Then, HyStem (1 ml, 1% w/v) is mixed with Gelin-S (1 ml, 1% w/v) immediately before use. […] Following complete gelation (20 min), Differentiation Medium is added to each well. […] Plates were then placed in a humidified incubator at 37° C. with ambient O2 and 10% CO2, and the cells were fed three-times weekly.
Total RNA was extracted directly from cells growing in 6-well plates or 10 cm tissue culture dishes using Qiagen RNeasy mini kits according to the manufacturer's instructions. RNA concentrations were measured using a Beckman DU530 or Nanodrop spectrophotometer and RNA quality was determined by denaturing agarose gel electrophoresis or using an Agilent 2100 bioanalyzer. […] Values of less than 120 relative fluorescence units (RFUs) were considered as nonspecific background signal.

B1: BMP7: Bone Morphogenetic Protein 7, member of the TGFβ superfamily (protein, UniProt P18075 293-431, looked up)
Bone morphogenetic protein 7: STGSKQRSQNRSKTPKNQEALRMANVAENSSSDQRQACKKHELYVSFRDLGWQDWIIAPEGYAAYYCEGECAFPLNSYMNATNHAIVQTLVHFINPETVPKPCCAPTQLNAISVLYFDDSSNVILKKYRNMVVRACGCH
Take B1: the cell viability entry is reported as “greater levels of cell viability”.

B2: BMP4: Bone Morphogenetic Protein 4, member of the TGFβ superfamily (protein, UniProt P12644 293-408, looked up)
Bone morphogenetic protein 4: SPKHHSQRARKKNKNCRRHSLYVDFSDVGWNDWIVAPPGYQAFYCHGDCPFPLADHLNSTNHAIVQTLVNSVNSSIPKACCVPTELSAISMLYLDEYDKVVLKNYQEMVVEGCGCR
On to B2, for which the cell viability result is given as “greater levels of cell viability”.
